Binding affinity data for 98 substances are collected here from patent publication US20250011363A1, “OPTIMIZED SHORTENED PEPTIDE THAT BINDS TO ACETYLCHOLINE RECEPTOR, AND USE THEREOF” (SKINMED CO., LTD., priority 2021, published 2025).

The target in this assay is acetylcholine receptor (Homo sapiens, UniProt P02708). Nature of the assay: SPR binding affinity (RU) of optimized 5mer/6mer/7mer peptides, Examples 6-7. The note with it: SPR, Resonance Units; peptides tested at 10 μM; 6mer-1 Bottom sequence (Table 11). A digest of the protocol:
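Single-concentration screen: 10 μM peptide, SPR detection, binding expressed as RU.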
A general note: Surface plasmon resonance follows binding to a sensor surface in real time, without labels.

acetylcholine receptor, sequence (P02708 21-457): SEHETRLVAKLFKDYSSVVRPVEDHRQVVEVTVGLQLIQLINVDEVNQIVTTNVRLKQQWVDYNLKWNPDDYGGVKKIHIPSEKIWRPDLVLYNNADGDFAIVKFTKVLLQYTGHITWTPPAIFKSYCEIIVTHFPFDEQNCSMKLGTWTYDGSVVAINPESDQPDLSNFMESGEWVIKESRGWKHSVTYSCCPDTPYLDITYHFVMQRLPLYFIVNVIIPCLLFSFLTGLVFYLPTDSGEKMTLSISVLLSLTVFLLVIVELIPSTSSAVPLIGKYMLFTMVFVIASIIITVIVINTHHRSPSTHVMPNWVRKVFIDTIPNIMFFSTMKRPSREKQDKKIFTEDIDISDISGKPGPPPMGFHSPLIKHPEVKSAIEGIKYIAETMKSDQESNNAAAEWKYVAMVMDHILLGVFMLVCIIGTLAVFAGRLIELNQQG

On to 6mer-1-696 (KKHCNR), for which the Binding affinity was 18 Ru. Under 6mer-1-697 (RRPTNR) stands 13 Ru; under 6mer-1-698 (KRFNHK), 27 Ru; under 6mer-1-699 (RRTTVR), 28 Ru. Under 6mer-1-700 (RKKMWK) stands 19 Ru.

With 6mer-1-701 (RRKTWR), the Binding affinity was determined as 13 Ru. Under 6mer-1-702 (KRDWVK) stands 31 Ru; under 6mer-1-703 (KKFHPR), 18 Ru; under 6mer-1-704 (RRMCER), 16 Ru. Under 6mer-1-705 (KRTEWR) stands 12 Ru; under 6mer-1-706 (KRMKDR), 29 Ru; under 6mer-1-707 (KRFWPK), 26 Ru. Under 6mer-1-708 (KKKHEK) stands 14 Ru; under 6mer-1-709 (KKFKPK), 29 Ru; under 6mer-1-710 (KKMHHR), 21 Ru. 6mer-1-711 (RRATHR): the Binding affinity stood at 19 Ru. Under 6mer-1-712 (KKPSNK) stands 24 Ru; under 6mer-1-713 (KKATNK), 20 Ru. Under 6mer-1-714 (KRTSFK) stands 25 Ru. Under 6mer-1-715 (KRMMVK) stands 18 Ru. For 6mer-1-716 (RRMPFK), the Binding affinity worked out at 11 Ru. Under 6mer-1-717 (KRHEDR) stands 22 Ru; under 6mer-1-718 (RKFKAR), 23 Ru; under 6mer-1-719 (KKDAEK), 27 Ru. Under 6mer-1-720 (RRKHKR) stands 11 Ru; under 6mer-1-721 (RKAMEK), 22 Ru; under 6mer-1-722 (RRNKVR), 12 Ru. Under 6mer-1-723 (RKMPAK) stands 33 Ru; under 6mer-1-724 (KRPKNK), 19 Ru. For the substance 6mer-1-725 (KKDKPK), the Binding affinity came out at 32 Ru.

On to 6mer-1-726 (KKHSMK), for which the Binding affinity was determined as 33 Ru. Under 6mer-1-727 (RKANGK) stands 29 Ru; under 6mer-1-728 (RRDNAR), 23 Ru; under 6mer-1-729 (KKKSGK), 23 Ru. Under 6mer-1-730 (KRATFR) stands 13 Ru; under 6mer-1-731 (RRIKAR), 18 Ru. Regarding 6mer-1-732 (RRAAVR), the Binding affinity is given as 26 Ru. Under 6mer-1-733 (KKKMFK) stands 21 Ru; under 6mer-1-734 (RRTHER), 21 Ru.

As to 6mer-1-735 (RKDKER), the Binding affinity turned out to be 19 Ru. Under 6mer-1-736 (KKATDK) stands 15 Ru. Under 6mer-1-737 (RRKNAR) stands 27 Ru. Under 6mer-1-738 (RKYHHR) stands 25 Ru.

On to 6mer-1-739 (RKCCEK), for which the Binding affinity is 32 Ru.

In the case of 6mer-1-740 (RKDNKR), the Binding affinity came to 26 Ru. As for 6mer-1-741 (RKEAGR), the Binding affinity turned out to be 24 Ru. Under 6mer-1-742 (RRFHWR) stands 14 Ru; under 6mer-1-743 (KKTMVR), 14 Ru; under 6mer-1-744 (RKHEIK), 31 Ru. Under 6mer-1-745 (KKTMEK) stands 11 Ru; under 6mer-1-746 (RKMSVK), 24 Ru.

In the case of 6mer-1-747 (KKTMDR), the Binding affinity is 24 Ru. For the substance 6mer-1-748 (RKHNGR), the Binding affinity was found to be 24 Ru. Under 6mer-1-749 (RKPHWR) stands 33 Ru; under 6mer-1-750 (KRENIK), 33 Ru.

Consider 6mer-1-751 (RRTNFK), for which the Binding affinity stood at 27 Ru.

As for 6mer-1-752 (KRPTEK), the Binding affinity came out at 16 Ru. Under 6mer-1-753 (KKDTHK) stands 12 Ru; under 6mer-1-754 (RKKKMK), 24 Ru; under 6mer-1-755 (RRANMR), 25 Ru.

6mer-1-756 (RKAKMK): the Binding affinity was 33 Ru. Under 6mer-1-757 (RKDNEK) stands 26 Ru. Under 6mer-1-758 (KKYHHR) stands 33 Ru; under 6mer-1-759 (RKMTWR), 23 Ru. Under 6mer-1-760 (KRMMVR) stands 21 Ru.

On to 6mer-1-761 (RKETFR), for which the Binding affinity is recorded as 33 Ru. Turning to 6mer-1-762 (KKTKAR), the Binding affinity is recorded as 13 Ru.

With 6mer-1-763 (RRDCAK), the Binding affinity turned out to be 12 Ru. Under 6mer-1-764 (RRNPFK) stands 24 Ru. Under 6mer-1-765 (KRASPK) stands 25 Ru; under 6mer-1-766 (RKCTIR), 15 Ru. Under 6mer-1-767 (KRTPDK) stands 18 Ru; under 6mer-1-768 (RKFEWK), 32 Ru.

Consider 6mer-1-769 (RKMPVK), for which the Binding affinity is recorded as 14 Ru. Under 6mer-1-770 (RKTNAR) stands 29 Ru; under 6mer-1-771 (KKMDIK), 17 Ru. Under 6mer-1-772 (KRNCAK) stands 12 Ru.

On to 6mer-1-773 (KRTEIR), for which the Binding affinity is listed as 29 Ru. Under 6mer-1-774 (KKEMER) stands 21 Ru; under 6mer-1-775 (KKYPWR), 12 Ru. Turning to 6mer-1-776 (KKTSIK), the Binding affinity was 13 Ru.

For the substance 6mer-1-777 (RRHNHR), the Binding affinity was found to be 16 Ru.

As to 6mer-1-778 (RRDDFR), the Binding affinity amounted to 28 Ru. Consider 6mer-1-779 (RRPDAR), for which the Binding affinity was found to be 30 Ru.

Turning to 6mer-1-780 (KRKCWR), the Binding affinity was determined as 24 Ru. Under 6mer-1-781 (RRHWDK) stands 16 Ru; under 6mer-1-782 (KKNAWK), 30 Ru; under 6mer-1-783 (KKNEFK), 29 Ru. Under 6mer-1-784 (KKFTPK) stands 33 Ru; under 6mer-1-785 (KKTCER), 19 Ru; under 6mer-1-786 (KRIKEK), 26 Ru.

As for 6mer-1-787 (KKESIK), the Binding affinity was determined as 16 Ru. Under 6mer-1-788 (RKIPKK) stands 22 Ru; under 6mer-1-789 (KRMMPK), 19 Ru; under 6mer-1-790 (KKPNPK), 12 Ru. Under 6mer-1-791 (RKPDDK) stands 13 Ru. Under 6mer-1-792 (KRKDKK) stands 30 Ru; under 6mer-1-793 (KKTPNR), 31 Ru.
